Consider 14 molecules from article PMC3834829, “A signature motif mediating selective interactions of BCL11A with the NR2E/F subfamily of orphan nuclear receptors” (Nucleic Acids Research, 2013).

Residue numbers refer to the chain shown, from its start. Numbers in names are those of the source.

One test deals with AAD-LRH-1-LBD-(133–495) (UniProt O00482). The test can be described thus: yeast two-hybrid. Conditions: parent: est. 1100; read off a plot.
The target in a further test is LexA-BCL11A RID1 R320A (UniProt Q9H165). The test can be described thus: two-hybrid; S. cerevisiae L40; LexA DBD fusion with VP16 AAD-NR fusion; β-galactosidase activity in cell-free extracts; vehicle only or no ligand.
In a further test the target is LexA-BCL11A RID1 R317A (UniProt Q9H165). Described as above.
Test [1] has as its target T1, LexA-COUP-TFII-LBD-(144–414) (UniProt P24468 144-414).
T1 construct: the bait copy of the LBD in the dimer assay; same residues as m19; also called wild-type COUP-TFII LBD; full-length LBD; source: yeast two-hybrid fusion (S. cerevisiae L40)
T1 sequence (looked up): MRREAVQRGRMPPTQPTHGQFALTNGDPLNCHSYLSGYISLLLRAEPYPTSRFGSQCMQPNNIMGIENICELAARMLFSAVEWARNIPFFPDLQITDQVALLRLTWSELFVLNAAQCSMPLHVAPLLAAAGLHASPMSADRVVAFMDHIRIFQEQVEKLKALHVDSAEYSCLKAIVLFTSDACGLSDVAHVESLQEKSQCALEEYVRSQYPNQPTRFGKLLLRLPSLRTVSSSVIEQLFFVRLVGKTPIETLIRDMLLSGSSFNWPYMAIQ
Described as above. The note with it: partners not purified.

The next test concerns the target LexA-BCL11A RID1 F315A (UniProt Q9H165). The test is described as above.

Sequence of AAD-LRH-1-LBD-(133–495) (O00482 133-495): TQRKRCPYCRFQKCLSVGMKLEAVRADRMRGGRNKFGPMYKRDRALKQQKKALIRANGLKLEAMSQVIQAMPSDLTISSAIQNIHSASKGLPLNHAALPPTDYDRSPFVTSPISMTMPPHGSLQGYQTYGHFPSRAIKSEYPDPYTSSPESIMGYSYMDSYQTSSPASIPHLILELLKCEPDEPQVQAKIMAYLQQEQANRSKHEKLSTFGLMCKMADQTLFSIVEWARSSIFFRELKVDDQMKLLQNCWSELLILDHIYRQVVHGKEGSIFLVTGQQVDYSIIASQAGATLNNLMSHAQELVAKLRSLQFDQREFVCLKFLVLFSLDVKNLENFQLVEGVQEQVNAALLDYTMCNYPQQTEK

Consider LexA-NSD1-(790–818) L810A, for which, in the test with AAD-LRH-1-LBD-(133–495), the response was determined as 0 nmol/mg/min. On the same count and under the same terms, the figure for LexA-NSD1-(790–818) D812A is 660 nmol/mg/min; for LexA-NSD1-(790–818) F803A it is 310 nmol/mg/min. In the case of LexA-NSD1-(790–818) L807A, the response in the test with AAD-LRH-1-LBD-(133–495) came to 470 nmol/mg/min. Regarding LexA-NSD1-(790–818) K802A, the response in the test with AAD-LRH-1-LBD-(133–495) stood at 1300 nmol/mg/min. The same measure, in the same setting: the figure for LexA-NSD1-(790–818) Y801A is 690 nmol/mg/min. Still for that read-out and setting: the figure for LexA-NSD1-(790–818) M809A is 0 nmol/mg/min; for LexA-NSD1-(790–818) M808A it is 900 nmol/mg/min. As to LexA-NSD1-(790–818) L806A, the response in the test with AAD-LRH-1-LBD-(133–495) is 0 nmol/mg/min. Still for that read-out and setting: the value for LexA-NSD1-(790–818) S804A was 0 nmol/mg/min. As to LexA-NSD1-(790–818) K811A, the response with AAD-LRH-1-LBD-(133–495) is 710 nmol/mg/min.

B1: AAD-COUP-TFII-LBD-(144–414) (domain or fragment)
chain: T1 sequence (looked up)
Turning to B1, the fold lower reporter activity than wild-type RID1 with LexA-BCL11A RID1 R320A and with LexA-BCL11A RID1 R317A was 5 fold in each case.

B2: AAD-COUP-TFII-LBD V224A (domain or fragment, UniProt P24468 144-414, looked up)
chain: T1 sequence (looked up) with V81A
notes: expressed at a 2-fold lower level than the other constructs of the series; also called V224A mutant; source: yeast two-hybrid fusion (S. cerevisiae L40)
Regarding B2, the “fold reduction of reporter activation due to homodimer formation” value in test [1] is around 2.5 fold.

B3: AAD-EAR2-LBD-(121–399) (domain or fragment)
chain: MRKEAVQRGRIPHSLPGAVAASSGSPPGSALAAVASGGDLFPGQPVSELIAQLLRAEPYPAAAGRFGAGGGAAGAVLGIDNVCELAARLLFSTVEWARHAPFFPELPVADQVALLRLSWSELFVLNAAQAALPLHTAPLLAAAGLHAAPMAAERAVAFMDQVRAFQEQVDKLGRLQVDSAEYGCLKAIALFTPDACGLSDPAHVESLQEKAQVALTEYVRAQYPSQPQRFGRLLLRLPALRAVPASLISQLFFMRLVGKTPIETLIRDMLLSGSTFNWP
B3 displayed a fold lower reporter activation than wild-type RID1 with LexA-BCL11A RID1 F315A of 2 fold.
